Data on two proteins can be found in paper PMC7864060, “The cation diffusion facilitator protein MamM's cytoplasmic domain exhibits metal-type dependent binding modes and discriminates against Mn^2+” (The Journal of Biological Chemistry, 2020).

Data set [1] deals with the molecule itself. Put plainly: crystal structure; MamM CTD 20 mg/ml co-crystallised with 3.375 mM CuSO4; 10 mM Tris pH 8.0, 150 mM NaCl, 5 mM β-mercaptoethanol; vapor diffusion, 293 K.
Data set [2] concerns the molecule itself. Put plainly: PELDOR (pulsed EPR) spectroscopy; four-pulse PELDOR at 50 K on MTSL-labelled C267S MamM CTD (250 or 500 µM in D2O, 30% glycerol-d8) incubated with 3- or 5-fold excess of Cd2+, Ni2+, Cu2+, Fe2+ or Mn2+; distance between the Cys-275 labels of the two protomers.

B1: MamM CTD (cytoplasmic C-terminal domain of MamM, residues 215-318) (domain or fragment, UniProt V6F235 215-318, looked up)
chain: EAVQNRIVEAAERVPGVRGVIHLRARYVGQDIWADMIIGVDPENTVEQAHEICEAVQAAVCGKIRRIESLHVSAEAREIGDTTKPSFSDQPLSFDEVMLSKVDN
notes: MamM, cation diffusion facilitator iron transporter of magnetotactic bacteria, UniProt Q6NE57, C-terminal domain, residues 215-318; Homodimer in all crystal forms; also called WT MamM CTD; MamM's cytoplasmic domain
In the case of B1, the binding result in data set [1] is on record as “binds”.

B2: spin-labeled C267S MamM CTD (domain or fragment, UniProt V6F235 215-318, looked up)
chain: EAVQNRIVEAAERVPGVRGVIHLRARYVGQDIWADMIIGVDPENTVEQAHEISEAVQAAVCGKIRRIESLHVSAEAREIGDTTKPSFSDQPLSFDEVMLSKVDN
modifications: MTSL spin label on Cys-275
notes: MamM, cation diffusion facilitator iron transporter of magnetotactic bacteria, UniProt Q6NE57, C-terminal domain, residues 215-318, with C267S; Only Cys-275 is left for labelling with MTSL; also called C267SSL; MamM CTD C267S
On to B2, for which the binding result in data set [2] is on record as “binds”.
